# Article PMC6926458
# What was measured:
# [1] = target: Fissurella latimarginata hemocyanin, native (Fissurella latimarginata); test: negative-stain transmission electron microscopy; hemocyanins 0.6 mg/ml on parlodion-coated copper grids, 1-2% uranyl acetate; didecamers, decamers and dissociated structures counted in about 20 images
# [2] = target: Concholepas concholepas hemocyanin, native (Concholepas concholepas); test: as above
stoichiometry N [1],stoichiometry N [2],Substance
20,–,"Fissurella latimarginata hemocyanin, native (natural protein)"
–,20,"Concholepas concholepas hemocyanin, native (complex)"
